From the supplement of paper PMC10065799, “High-throughput profiling of sequence recognition by tyrosine kinases and SH2 domains using bacterial peptide display” (eLife, 2023)

Assays:
c-Src SH2 = test: SH2 binding enrichment of the phosphorylated peptide, bacterial display (enrichment ratio); higher = better substrate or ligand; peptides without Tyr show the background
SHP2-C SH2 = test: as above
Grb2 SH2 = Grb2 SH2 (UniProt P62993); test: as above
EPHB1 = EPHB1 (UniProt P54762); test: phosphorylation enrichment, bacterial display (enrichment ratio); higher = better substrate or ligand; peptides without Tyr show the background
EPHB2 = EPHB2 (UniProt P29323); test: as above
MERTK = MERTK (UniProt Q12866); test: as above
Hck = Hck (UniProt P08631); test: as above
Fyn = Fyn (UniProt P06241); test: as above
c-Src = test: as above
c-Abl (mouse) = test: as above
FGFR1 = FGFR1 (UniProt P11362); test: as above
Jak2 = Jak2 (UniProt O60674); test: as above
Fer (mouse) = test: as above
FGFR3 = FGFR3 (UniProt P22607); test: as above
AncSZ = test: as above
Fes = Fes (UniProt P07332); test: as above
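Wherever SH2 binding enrichment of the phosphorylated peptide, bacterial display is given: peptide library displayed on the E. coli surface as eCPX fusions, selected cells deep-sequenced, score is each peptide's frequency after selection divided by its frequency in the input.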
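Wherever phosphorylation enrichment, bacterial display is given: 11-residue human phosphosite peptides and single-mutation variants displayed on the E. coli surface, counted by deep sequencing, each peptide's frequency after selection divided by its frequency in the unselected input library; frequency after pTyr selection over input frequency; kinase dosed for 20-30% of maximal phosphorylation in three min.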

Chain of EPHB2 (P29323 whole entry, looked up): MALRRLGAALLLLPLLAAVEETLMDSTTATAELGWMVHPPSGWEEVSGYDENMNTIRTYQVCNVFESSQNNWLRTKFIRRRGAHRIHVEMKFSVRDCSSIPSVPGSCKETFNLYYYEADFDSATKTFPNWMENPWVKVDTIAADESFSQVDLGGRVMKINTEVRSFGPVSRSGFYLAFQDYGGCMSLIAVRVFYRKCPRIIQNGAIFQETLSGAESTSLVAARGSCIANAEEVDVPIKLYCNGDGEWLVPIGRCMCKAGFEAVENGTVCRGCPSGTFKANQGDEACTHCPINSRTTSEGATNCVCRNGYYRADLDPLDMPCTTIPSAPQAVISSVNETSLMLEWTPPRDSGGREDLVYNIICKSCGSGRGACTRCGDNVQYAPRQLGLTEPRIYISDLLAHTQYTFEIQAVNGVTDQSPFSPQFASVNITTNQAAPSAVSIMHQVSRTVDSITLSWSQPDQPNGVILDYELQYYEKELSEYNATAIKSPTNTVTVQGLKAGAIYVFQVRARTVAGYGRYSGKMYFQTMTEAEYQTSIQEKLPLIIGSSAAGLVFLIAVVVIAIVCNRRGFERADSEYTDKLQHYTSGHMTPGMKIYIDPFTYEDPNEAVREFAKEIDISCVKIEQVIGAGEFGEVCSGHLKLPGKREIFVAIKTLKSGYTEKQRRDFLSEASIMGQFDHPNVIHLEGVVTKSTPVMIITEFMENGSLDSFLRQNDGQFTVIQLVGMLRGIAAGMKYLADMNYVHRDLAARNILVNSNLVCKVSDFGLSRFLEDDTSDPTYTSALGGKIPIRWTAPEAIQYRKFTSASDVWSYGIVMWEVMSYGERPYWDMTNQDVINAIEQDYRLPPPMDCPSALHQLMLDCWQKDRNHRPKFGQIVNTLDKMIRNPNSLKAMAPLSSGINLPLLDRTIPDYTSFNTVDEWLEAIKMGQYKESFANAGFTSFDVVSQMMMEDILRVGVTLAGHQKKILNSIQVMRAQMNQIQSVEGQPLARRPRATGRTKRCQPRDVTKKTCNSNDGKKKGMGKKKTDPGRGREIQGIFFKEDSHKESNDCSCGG
Chain of Hck (P08631 whole entry, looked up): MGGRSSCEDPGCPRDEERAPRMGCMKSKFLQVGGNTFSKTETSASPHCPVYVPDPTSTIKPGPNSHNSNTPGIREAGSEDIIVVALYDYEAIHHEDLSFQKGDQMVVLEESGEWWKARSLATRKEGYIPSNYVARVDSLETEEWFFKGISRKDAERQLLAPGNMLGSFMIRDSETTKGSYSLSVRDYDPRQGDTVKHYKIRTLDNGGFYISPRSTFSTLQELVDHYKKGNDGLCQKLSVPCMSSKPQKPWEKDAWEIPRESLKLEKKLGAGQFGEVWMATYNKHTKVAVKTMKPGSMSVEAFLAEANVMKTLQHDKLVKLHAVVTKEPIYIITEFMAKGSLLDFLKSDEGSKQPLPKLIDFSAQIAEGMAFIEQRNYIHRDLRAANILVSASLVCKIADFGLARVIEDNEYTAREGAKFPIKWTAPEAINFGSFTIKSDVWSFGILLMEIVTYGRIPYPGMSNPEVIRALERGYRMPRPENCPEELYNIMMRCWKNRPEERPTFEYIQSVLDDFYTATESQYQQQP
Chain of EPHB1 (P54762 whole entry, looked up): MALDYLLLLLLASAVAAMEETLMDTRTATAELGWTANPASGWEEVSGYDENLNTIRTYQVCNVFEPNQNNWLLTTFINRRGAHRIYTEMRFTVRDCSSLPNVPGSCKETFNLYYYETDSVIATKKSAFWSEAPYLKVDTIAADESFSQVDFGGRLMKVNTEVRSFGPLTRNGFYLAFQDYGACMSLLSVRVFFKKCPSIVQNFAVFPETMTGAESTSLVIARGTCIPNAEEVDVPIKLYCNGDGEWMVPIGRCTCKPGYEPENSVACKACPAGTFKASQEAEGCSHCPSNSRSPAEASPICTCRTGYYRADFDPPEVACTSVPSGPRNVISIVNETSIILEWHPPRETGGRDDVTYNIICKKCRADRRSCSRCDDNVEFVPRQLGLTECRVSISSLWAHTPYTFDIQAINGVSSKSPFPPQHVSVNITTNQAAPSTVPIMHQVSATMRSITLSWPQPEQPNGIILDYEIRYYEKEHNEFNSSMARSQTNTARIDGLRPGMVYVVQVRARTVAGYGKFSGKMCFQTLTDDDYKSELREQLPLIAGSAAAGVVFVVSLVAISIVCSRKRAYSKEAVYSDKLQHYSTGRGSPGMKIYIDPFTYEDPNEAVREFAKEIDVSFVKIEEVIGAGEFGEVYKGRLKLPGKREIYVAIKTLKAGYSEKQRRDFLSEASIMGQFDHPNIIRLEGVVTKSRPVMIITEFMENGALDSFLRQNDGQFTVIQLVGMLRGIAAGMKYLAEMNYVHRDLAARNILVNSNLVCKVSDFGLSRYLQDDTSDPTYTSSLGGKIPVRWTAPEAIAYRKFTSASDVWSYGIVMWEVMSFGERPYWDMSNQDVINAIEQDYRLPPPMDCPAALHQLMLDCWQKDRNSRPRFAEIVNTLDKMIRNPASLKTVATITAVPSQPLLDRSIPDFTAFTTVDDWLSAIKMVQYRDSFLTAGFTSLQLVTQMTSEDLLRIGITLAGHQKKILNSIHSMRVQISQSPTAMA
Chain of FGFR1 (P11362 whole entry, looked up): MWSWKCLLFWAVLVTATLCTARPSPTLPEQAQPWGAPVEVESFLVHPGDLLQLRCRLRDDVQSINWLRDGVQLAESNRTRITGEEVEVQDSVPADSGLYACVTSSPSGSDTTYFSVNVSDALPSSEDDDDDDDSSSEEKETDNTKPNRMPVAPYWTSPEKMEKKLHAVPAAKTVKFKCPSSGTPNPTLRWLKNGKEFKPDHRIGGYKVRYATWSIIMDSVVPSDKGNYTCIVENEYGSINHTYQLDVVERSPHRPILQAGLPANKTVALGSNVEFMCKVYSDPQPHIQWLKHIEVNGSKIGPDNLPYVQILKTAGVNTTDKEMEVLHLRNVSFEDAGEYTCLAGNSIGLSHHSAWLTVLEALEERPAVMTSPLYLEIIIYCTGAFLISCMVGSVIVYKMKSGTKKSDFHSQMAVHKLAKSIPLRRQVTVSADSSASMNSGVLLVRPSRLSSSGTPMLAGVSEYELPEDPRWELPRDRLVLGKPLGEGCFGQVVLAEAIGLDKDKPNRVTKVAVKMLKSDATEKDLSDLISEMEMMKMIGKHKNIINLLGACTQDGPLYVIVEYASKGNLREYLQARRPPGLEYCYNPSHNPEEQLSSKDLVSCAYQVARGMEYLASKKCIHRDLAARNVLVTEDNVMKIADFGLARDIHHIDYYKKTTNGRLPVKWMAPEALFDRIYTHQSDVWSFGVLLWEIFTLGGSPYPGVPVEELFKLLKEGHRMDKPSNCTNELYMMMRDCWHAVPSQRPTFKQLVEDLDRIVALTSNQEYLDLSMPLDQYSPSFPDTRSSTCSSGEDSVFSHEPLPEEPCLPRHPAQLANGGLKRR
Chain of Fes (P07332 whole entry, looked up, the tested form may be a part): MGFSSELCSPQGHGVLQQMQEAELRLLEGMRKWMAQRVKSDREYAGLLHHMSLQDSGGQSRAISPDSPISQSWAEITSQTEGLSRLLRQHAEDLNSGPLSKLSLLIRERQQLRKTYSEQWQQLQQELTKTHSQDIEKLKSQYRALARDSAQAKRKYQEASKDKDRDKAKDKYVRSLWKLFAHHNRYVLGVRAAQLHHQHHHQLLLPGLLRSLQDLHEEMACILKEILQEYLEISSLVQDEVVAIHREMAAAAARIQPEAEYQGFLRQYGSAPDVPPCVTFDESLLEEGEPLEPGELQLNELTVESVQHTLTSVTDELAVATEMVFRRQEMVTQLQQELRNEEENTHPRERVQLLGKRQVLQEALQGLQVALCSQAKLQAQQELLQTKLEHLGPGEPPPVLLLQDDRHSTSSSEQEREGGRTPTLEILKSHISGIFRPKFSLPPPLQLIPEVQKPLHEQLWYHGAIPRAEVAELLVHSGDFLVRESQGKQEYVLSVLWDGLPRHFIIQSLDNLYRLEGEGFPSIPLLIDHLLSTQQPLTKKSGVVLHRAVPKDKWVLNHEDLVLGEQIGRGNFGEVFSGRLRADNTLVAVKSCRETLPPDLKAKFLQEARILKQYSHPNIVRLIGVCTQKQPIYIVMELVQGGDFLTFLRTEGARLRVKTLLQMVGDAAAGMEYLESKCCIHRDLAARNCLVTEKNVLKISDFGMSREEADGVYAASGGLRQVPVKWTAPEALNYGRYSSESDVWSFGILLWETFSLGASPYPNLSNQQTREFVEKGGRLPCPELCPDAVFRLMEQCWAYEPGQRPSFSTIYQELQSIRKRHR
Chain of Fyn (P06241 whole entry, looked up): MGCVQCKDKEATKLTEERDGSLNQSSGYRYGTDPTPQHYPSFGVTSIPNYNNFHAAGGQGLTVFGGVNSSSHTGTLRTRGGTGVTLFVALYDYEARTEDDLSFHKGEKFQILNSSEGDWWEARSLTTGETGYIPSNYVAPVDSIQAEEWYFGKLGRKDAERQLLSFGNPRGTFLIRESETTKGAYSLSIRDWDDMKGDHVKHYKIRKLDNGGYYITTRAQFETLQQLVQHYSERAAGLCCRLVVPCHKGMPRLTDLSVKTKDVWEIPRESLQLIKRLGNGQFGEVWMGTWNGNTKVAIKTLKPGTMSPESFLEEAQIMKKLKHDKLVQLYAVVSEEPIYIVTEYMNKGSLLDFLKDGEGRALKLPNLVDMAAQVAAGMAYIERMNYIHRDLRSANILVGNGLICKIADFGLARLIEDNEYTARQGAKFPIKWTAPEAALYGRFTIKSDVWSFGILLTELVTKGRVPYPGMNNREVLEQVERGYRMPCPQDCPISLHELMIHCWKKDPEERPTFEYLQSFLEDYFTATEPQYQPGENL
Chain of Grb2 SH2 (P62993 whole entry, looked up): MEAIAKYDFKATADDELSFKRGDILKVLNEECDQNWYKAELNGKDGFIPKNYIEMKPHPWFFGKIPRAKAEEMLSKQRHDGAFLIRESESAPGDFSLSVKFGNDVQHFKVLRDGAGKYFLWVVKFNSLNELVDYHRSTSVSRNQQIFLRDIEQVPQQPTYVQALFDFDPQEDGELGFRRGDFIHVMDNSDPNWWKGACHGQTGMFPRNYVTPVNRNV

Row | Sequence | SH2 binding enrichment (c-Src SH2) | SH2 binding enrichment (SHP2-C SH2) | SH2 binding enrichment (Grb2 SH2) | phosphorylation enrichment (EPHB1) | phosphorylation enrichment (EPHB2) | phosphorylation enrichment (MERTK) | phosphorylation enrichment (Hck) | phosphorylation enrichment (Fyn) | phosphorylation enrichment (c-Src) | phosphorylation enrichment (c-Abl (mouse)) | phosphorylation enrichment (FGFR1) | phosphorylation enrichment (Jak2) | phosphorylation enrichment (Fer (mouse)) | phosphorylation enrichment (FGFR3) | phosphorylation enrichment (AncSZ) | phosphorylation enrichment (Fes)
1 | AAALAYGLDKS [HSPA9_Y230] | 0.423 | 0.637 | 0.69 | 0.442 | 0.4 | 0.398 | 0.419 | 0.388 | 0.528 | 0.499 | 0.455 | 1.2 | 0.467 | 0.477 | 0.598 | 1.12
2 | AAGGRYDGLLG [HARS2_Y364_V368L] | 0.545 | 0.633 | 0.785 | 0.471 | 0.415 | 0.451 | 0.459 | 0.548 | 0.468 | 1.01 | 0.457 | 0.645 | 0.452 | 0.531 | 0.631 | 0.85
3 | AAGGRYDGLVG [HARS1_Y363] | 0.505 | 0.514 | 0.806 | 0.357 | 0.351 | 0.378 | 0.351 | 0.346 | 0.348 | 0.538 | 0.291 | 0.489 | 0.306 | 0.48 | 0.677 | 0.615
4 | AAQNCYKVTNA [TPI1_Y105_G110A] | 0.608 | 0.639 | 1.15 | 0.355 | 0.455 | 0.62 | 0.36 | 0.454 | 0.44 | 0.466 | 0.367 | 0.552 | 0.354 | 0.46 | 0.522 | 0.639
5 | AAVNGYAFGGG [ECHS1_Y137] | 0.455 | 0.647 | 0.75 | 0.347 | 0.389 | 0.324 | 0.344 | 0.423 | 0.379 | 0.548 | 0.435 | 0.521 | 0.473 | 0.406 | 0.495 | 0.553
6 | ADKAAYLQNLN [MYH1_Y389] | 0.39 | 0.73 | 0.659 | 0.44 | 0.52 | 0.522 | 0.61 | 0.645 | 0.601 | 0.488 | 0.458 | 0.617 | 0.53 | 0.637 | 0.718 | 0.747
7 | AEFGLYAAMVR [VSX2_Y222_G223A_YF] | 0.494 | 0.581 | 0.898 | 2.79 | 2.14 | 2.69 | 4.34 | 2.44 | 2.17 | 1.09 | 0.614 | 1.54 | 1.4 | 0.888 | 1.29 | 1.24
8 | AELVQYYMEHH [PTPN11_Y80] | 0.683 | 1.13 | 0.688 | 1.06 | 1.01 | 0.68 | 0.974 | 0.654 | 0.845 | 0.826 | 0.827 | 1.19 | 0.494 | 0.954 | 1.2 | 1.26
9 | AEMTGYVMTRW [MAPK13_Y182_V184M] | 0.467 | 0.594 | 0.67 | 0.656 | 0.578 | 0.364 | 0.561 | 0.493 | 0.397 | 0.709 | 0.653 | 1.11 | 0.537 | 0.885 | 1.29 | 1.23
10 | AFGGGYGGVLT [KRT19_Y65_YF] | 0.455 | 0.719 | 0.784 | 0.478 | 0.407 | 0.286 | 0.454 | 0.378 | 0.38 | 0.685 | 0.338 | 0.625 | 0.312 | 0.446 | 0.699 | 0.647
11 | AGADGYGFLAP [FOXL2_Y186_YF] | 0.456 | 0.661 | 0.832 | 0.391 | 0.508 | 0.618 | 0.71 | 0.517 | 0.797 | 0.698 | 0.652 | 0.857 | 0.611 | 0.694 | 0.846 | 0.737
12 | AGGTRYRYVSQ [UCN3_Y95_R91G] | 0.438 | 0.438 | 0.777 | 0.574 | 0.525 | 0.519 | 0.435 | 0.491 | 0.507 | 0.474 | 0.397 | 0.417 | 0.377 | 0.381 | 0.529 | 0.616
13 | AGHEEYSAMRD [KRAS_Y64_Q61H] | 0.512 | 0.713 | 0.777 | 0.462 | 0.578 | 0.532 | 0.542 | 0.588 | 0.558 | 0.616 | 0.51 | 0.854 | 0.43 | 0.588 | 0.797 | 0.981
14 | AGNPAYRSFSN [IL4R_Y497] | 0.431 | 0.466 | 0.751 | 0.347 | 0.318 | 0.39 | 0.424 | 0.402 | 0.45 | 0.618 | 0.366 | 0.447 | 0.389 | 0.414 | 0.52 | 0.575
15 | AGQEDDDRLRP [RAC1_Y64_Y64D] | 0.528 | 1.28 | 0.867 | 0.497 | 0.669 | 0.439 | 0.591 | 0.608 | 0.46 | 0.703 | 0.607 | 1.12 | 0.572 | 0.637 | 1.15 | 1.28
16 | AGQERYRAITS [RAB11B_Y73] | 0.404 | 0.412 | 0.938 | 0.413 | 0.53 | 0.487 | 0.527 | 0.554 | 0.512 | 0.605 | 0.613 | 0.704 | 0.469 | 0.466 | 0.641 | 0.627
17 | AGTIPYHAHLD [ASS1_Y291_L290P] | 0.554 | 0.772 | 0.838 | 0.395 | 0.369 | 0.456 | 0.484 | 0.415 | 0.377 | 0.474 | 0.458 | 0.447 | 0.357 | 0.435 | 0.507 | 0.645

Row | Sequence | SH2 binding enrichment (c-Src SH2) | SH2 binding enrichment (SHP2-C SH2) | SH2 binding enrichment (Grb2 SH2) | phosphorylation enrichment (EPHB1) | phosphorylation enrichment (EPHB2) | phosphorylation enrichment (MERTK) | phosphorylation enrichment (Hck) | phosphorylation enrichment (Fyn) | phosphorylation enrichment (c-Src) | phosphorylation enrichment (c-Abl (mouse)) | phosphorylation enrichment (FGFR1) | phosphorylation enrichment (Jak2) | phosphorylation enrichment (Fer (mouse)) | phosphorylation enrichment (FGFR3) | phosphorylation enrichment (AncSZ) | phosphorylation enrichment (Fes)
18 | AIQDAYMHITS [ADCY10_Y318] | 1.27 | 0.742 | 0.825 | 0.469 | 0.492 | 0.542 | 0.457 | 0.517 | 0.483 | 0.588 | 0.576 | 0.584 | 0.497 | 0.523 | 0.671 | 0.647
19 | AIYEGYALPHA [ACTC1_Y171_P166A] | 2.48 | 0.726 | 0.792 | 20.8 | 30.1 | 13.8 | 13.7 | 15.9 | 11.3 | 18.1 | 0.761 | 0.789 | 22.6 | 0.773 | 1.77 | 1.37
20 | AKLKDYFIFNK [CCDC42_Y149_YF] | 0.846 | 0.847 | 1.37 | 0.417 | 0.513 | 0.56 | 0.478 | 0.465 | 0.658 | 0.435 | 1.49 | 0.759 | 0.487 | 1 | 0.82 | 0.783
21 | AKQVGCENAGT [PC_Y304_Y304C] | 0.455 | 0.694 | 0.803 | 0.407 | 0.455 | 0.442 | 0.408 | 0.487 | 0.428 | 0.638 | 0.391 | 0.706 | 0.42 | 0.484 | 0.749 | 0.83
22 | AKRKGYDMRVD [NEB_Y2770] | 0.464 | 0.728 | 0.755 | 0.295 | 0.339 | 0.394 | 0.355 | 0.47 | 0.363 | 0.42 | 0.292 | 0.431 | 0.358 | 0.297 | 0.459 | 0.477
23 | ALAHKYDGGGG [HBB_Y146_H147D] | 0.401 | 0.357 | 0.765 | 0.464 | 0.655 | 0.54 | 0.473 | 0.367 | 0.478 | 0.663 | 0.751 | 0.825 | 0.635 | 0.494 | 0.985 | 0.7
24 | ALDHKYHGGGG [HBB_Y146_A143D] | 0.479 | 0.6 | 0.863 | 0.342 | 0.355 | 0.381 | 0.406 | 0.375 | 0.372 | 0.425 | 0.365 | 0.455 | 0.321 | 0.392 | 0.458 | 0.526
25 | ALRASYTPSPA [ESS2_Y418] | 0.536 | 0.624 | 0.893 | 0.352 | 0.34 | 0.326 | 0.333 | 0.332 | 0.369 | 0.329 | 0.366 | 0.294 | 0.367 | 0.389 | 0.448 | 0.471
26 | ANAYIYDVQLP [L1CAM_Y420_V421D] | 0.773 | 1.54 | 0.854 | 3.15 | 2.78 | 9.63 | 6.89 | 10.3 | 7.22 | 0.954 | 0.65 | 0.905 | 1.72 | 0.89 | 1.25 | 1.05
27 | ANNQRYAFMPL [TMEM87B_Y460] | 1.42 | 0.84 | 0.821 | 0.655 | 0.591 | 5.61 | 0.393 | 0.436 | 0.485 | 0.528 | 0.535 | 0.621 | 0.394 | 0.566 | 0.588 | 0.696
28 | ANSPVYVPTTR [GATA6_Y188_S184N] | 0.506 | 0.783 | 0.834 | 0.371 | 0.405 | 0.468 | 0.583 | 0.384 | 0.448 | 0.52 | 0.419 | 0.821 | 0.44 | 0.441 | 0.506 | 0.667
29 | ANVKWYRNGRE | 0.512 | 0.487 | 0.658 | 0.509 | 0.578 | 0.468 | 0.484 | 0.43 | 0.485 | 0.479 | 0.409 | 0.665 | 0.457 | 0.485 | 0.867 | 0.738
30 | AQESNYRLLRR [SLC20A2_Y377] | 0.456 | 0.439 | 0.823 | 0.48 | 0.498 | 0.406 | 0.443 | 0.45 | 0.365 | 0.984 | 0.409 | 0.593 | 0.414 | 0.527 | 0.738 | 0.688
31 | ARRHPYFFAPE [ALB_Y172_Y174F] | 0.525 | 0.566 | 0.821 | 0.546 | 0.635 | 0.588 | 0.402 | 0.58 | 0.721 | 0.538 | 2.85 | 0.726 | 0.559 | 1.86 | 1.09 | 0.746
32 | ASIVDYNIIGW [MYH7_Y588_G584S] | 0.535 | 0.769 | 0.761 | 0.742 | 0.528 | 0.498 | 0.605 | 0.45 | 0.514 | 0.92 | 0.948 | 0.947 | 0.59 | 0.865 | 1.11 | 1.22
33 | ASTHIYQIMNH [ITK_Y588_V587I] | 5.44 | 1.41 | 0.923 | 8.67 | 2.63 | 6.62 | 5.65 | 4.85 | 4.36 | 1.24 | 0.735 | 0.469 | 6.35 | 0.624 | 0.562 | 0.754
34 | LSDGPYSNPYE [EPOR_Y485] | 5.44 | 0.703 | 1.39 |  |  |  |  |  | 3.36 | 3.22 |  | 3.98 |  |  |  | 
